The results in this text go back to patent US20220127365A1 (DREN BIO, published 2022).

The target of assay [1] is T1, human CD94 (human, UniProt Q13241 1-179).
T1 construct: whole, on cells; Endogenous CD94 on primary cells (healthy-donor PBMC NK cells, CLPD-NK and T-LGLL patient cells), where it pairs with NKG2A or NKG2C; also called KLRD1; Natural killer cells antigen CD94
T1 sequence (looked up): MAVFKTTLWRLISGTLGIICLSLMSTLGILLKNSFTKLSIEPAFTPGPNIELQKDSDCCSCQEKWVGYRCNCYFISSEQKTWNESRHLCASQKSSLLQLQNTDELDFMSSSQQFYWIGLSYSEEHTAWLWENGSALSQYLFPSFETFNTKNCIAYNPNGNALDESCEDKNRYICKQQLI
As to the kind of experiment: HLA-E tetramer blocking on healthy-donor PBMCs, flow cytometry; competitor HLA-E tetramer. As for the experimental part: (§1) Healthy donor PBMCs were seeded in 96-well plates at a density of 100,000 cells per well, incubated with human Fc block (Biolegend) and cell viability dye (Thermo Fisher) for 30 minutes on ice and protected from light. The cells were washed once with FACS buffer (PBS with 2% IgG low FBS). anti-CD94 antibodies at EC80 concentrations were incubated with cells for 30 minutes on ice and protected from light. After incubation with the anti-CD94 antibodies, the cells were washed and incubated with HLA-E tetramer PE (Creative Biolabs), anti-CD3 pacific blue-labelled, and anti-CD56 FITC-labelled antibodies (Biolegend) for 30 minutes on ice and protected from light. The cells then received a final wash in FACS buffer before quantification on the Cytoflex (Beckman Coulter). All data acquisition and fluorescence compensation were performed using CytoFlex (Beckman Coulter, Atlanta, Ga.). Data analysis was performed using FlowJo software. NK cells were identified through gating on lymphocytes on the forward and side scatter, followed by doublet and dead cell exclusion, and gated on the CD3−CD56+ population. HLA-E expression was then quantified on the CD3−CD56+NK cell population. Percent blocking was calculated as 100−((percent HLA-E positive for anti-CD94 antibody)/(percent HLA-E positive for isotype)*100).
Healthy donor PBMCs were incubated with anti-CD94 antibodies. PE labeled HLA-E tetramer was then incubated with cells and antibody mixture and detected by flow cytometry.
Percent blocking was calculated as 100−((percent HLA-E positive for anti-CD94 antibody)/(percent HLA-E positive for isotype)*100). If an antibody blocked more than 20% of HLA-E binding, it was considered a ligand-blocking antibody.
(Flow cytometry measures light scatter and fluorescence of single cells or particles in a stream.)

The target of assay [2] is T1, human CD94. Nature of the assay: flow cytometry titration (100 nM to 0.046 nM) on healthy-donor PBMCs, CD3-CD56bright NK cells; column 'Affinity on human NK cells (nM)'.
Assay [3] deals with T2, cynomolgus CD94 (cynomolgus monkey).
T2 construct: whole, on cells; The construct expressed in HEK293 cells is not described further; also called cyno CD94; cynomolgus monkey CD94
Nature of the assay: flow cytometry on HEK293 cells overexpressing cynomolgus CD94; unconjugated antibody in a dilution series, Alexa Fluor 647 anti-human secondary antibody. The protocol:
For human NK cell binding, PBMCs were freshly isolated from healthy donors and incubated with unconjugated antibodies in a dilution series from 100 nM to 0.046 nM. Secondary anti-human antibody labeled with Alexa Fluor 647 was used to detect binding on CD3−CD56bright NK cells. For cynomolgus CD94 binding, HEK293 cells overexpressing cynomolgus CD94 were incubated with unconjugated antibodies in a dilution series from 100 nM to 0.046 nM. Secondary anti-human antibody labeled with Alexa Fluor 647 was used to detect binding on the cells.

For assay [4], the target named is T1, human CD94. Nature of the assay: table column 'HLA-E blocking'; flow cytometry on NK cells of healthy donor PBMCs, antibody at saturating concentration, blocked ligand PE labeled HLA-E tetramer; percent blocking = 100-((percent HLA-E positive with antibody)/(percent HLA-E positive with isotype)*100). As for the experimental part: FIGS. 4A & 4B show the results of HLA-E tetramer blocking assays performed with anti-CD94 and commercially available anti-CD94 antibodies using flow cytometry. Healthy donor PBMCs were incubated with anti-CD94 antibodies. PE labeled HLA-E tetramer was then incubated with the cell and antibody mixture, and detected using flow cytometry. For HP-3B1, 131412, 12K45, DX22, 1M4 and 1E4, 2.5 μl of HLA-E tetramer reagent was used, while 5 μl was used for 18H3 and HP-3D9. Saturating concentrations of each antibody was used in this assay. The percent blocking was calculated as 100−((percent HLA-E positive for anti-CD94 antibody)/(percent HLA-E positive for isotype)*100).
as §1

Assay [5] concerns the target T1, human CD94. Nature of the assay: flow cytometry titration (100 nM to 0.046 nM) on healthy-donor PBMCs, gated NK cells; EC50 from GraphPad Prism. The protocol:
Peripheral blood monocuclear cells (PBMCs) of healthy donor HD-40 were used for antibody staining. 18H3 antibody was titrated from 100 nM to 0.046 nM in 1:3 dilutions and incubated with PBMCs. CD3 and CD56 antibodies were used to identify NK cells on the flow scatter. 18H3 antibody binding on […] and CD56 bright NK cells was used to assess affinity of 18H3. Titration curves and EC50 were generated using Graphpad Prism. […] Human IgG1 isotype control with secondary antibody (hIgG1) and goat (Fab)2 fragment anti-human Fcy-specific secondary antibody AF647 only (2ndary Ab) were used as controls.
Healthy donor PBMCs were seeded in 96 well plates at a density of 100,000 cells per well, incubated with human Fc block (Biolegend) and cell viability dye (Thermo Fisher) for 30 minutes on ice and protected from light. […] After incubation, the cells received a final wash in FACS buffer before quantification on the Cytoflex (Beckman Coulter). All data acquisition and fluorescence compensation were performed using CytoFlex (Beckman Coulter, Atlanta, Ga.). […] CD94 expression was then quantified on the CD3−CD56+NK cell population. […]
The affinity of the antibody clones was also assessed by flow cytometry analysis.

In assay [6] the target is T1, human CD94. Nature of the assay: competition assay, flow cytometry on NK cells of healthy donor PBMCs; 18H3-AF647 titrated in the presence of 1E4 at 11 µg/ml. The protocol:
(§2) FIGS. 5A-5B show the results of competition assays performed for 18H3 anti-CD94 antibody evaluation. For all competition assays, 18H3 was incubated with PBMCs at a concentration of 1.3 μg/ml. […] Commercially available anti-CD94 antibodies were titrated and incubated with PBMCs concurrently with 18H3. […] To test competition between 18H3 and 1M4/1E4, 1M4 and 1E4 were incubated with cells at concentrations of 8.5 μg/ml and 11 μg/ml, respectively. 18H3 was fluorescently tagged with AF647 and incubated with cells concurrently with […].
(§3) Healthy donor PBMCs were seeded in 96-well plates at a density of 100,000 cells per well, incubated with human Fc block (Biolegend) and cell viability dye (Thermo Fisher) for 30 minutes on ice and protected from light. The cells were washed once with FACS buffer (PBS with 2% IgG low FBS). Unconjugated anti-CD94 antibodies at EC80 concentrations, CD3 FITC and CD56 PE antibodies, and APC-labeled anti-CD94 antibodies were incubated with cells for 30 minutes on ice and protected from light. The cells then received a final wash in FACS buffer before quantification on the Cytoflex (Beckman Coulter). All data acquisition and fluorescence compensation were performed using CytoFlex (Beckman Coulter, Atlanta, Ga.). Data analysis was performed using FlowJo software. […] Anti-CD94 APC was then quantified on the CD3−CD56+NK cell population. […]

Assay [7] concerns the target T1, human CD94. Nature of the assay: competition assay, flow cytometry on NK cells of healthy donor PBMCs; 18H3-AF647 titrated, concurrently Mouse IgG1 control (or 1M4 at 8.5 µg/ml). The protocol: as §2, §3

By EC50 is commonly meant the concentration giving half of the maximal effect. As a reminder, the EC50 (read off the curve) is the concentration that produces a half-maximal response.

B1: anti-CD94 antibody ATX-126 (antibody, human IgG1, V domains shown)
VH: QVQLQESGGGLVQPGGSLKLSCAASGFTFSSYSMNWVRQAPGKGLEWVSSISTSSNFIYYADSVKGRFTISRDNSKNTLYLQMNSLRAEDTAVYYCVRDMGPFYSFYYMDVWGNGTTVTVSS
VL: DIQVTQSPATLSLSPGERATLSCRASQSVSSSYLAWYQQKPGQAPRLLIYGASNRATGIPARFSGSGSGTDFTLTISSLQPEDFATYYCLQHNSYPPTFGGGTKVDIK
As to B1, the “percent HLA-E blocking” value in assay [1] came out at 0%. In assay [2], this molecule registered an EC50 of 2.52 nM. For the same molecule, in assay [3], the “EC50 (read off the curve)” value is ~2 nM.

B2: anti-CD94 antibody ATX-125 (antibody, human IgG1, V domains shown)
VH: QVQLQQSGPGLVKPSETLSLTCTVSGGSISSIIYYWGWIRQPPGKGLEWIGSIYYSGSTYYNPSLKSRVTISVDTSKNQFSLNLSSVTAADTAVYYCARLPLTGEFAFDIWGQGTMVTVSS
VL: EIVLTQSPATLSLSPGERATLSCRASQSVSTYLAWFQQKPGQAPRLLIYGASSRATGIPDRFSGSGSGTDFTLTISRLEPEDFAVYYCQQYGSSPITFGQGTRLEIK
As to B2, the “percent HLA-E blocking” value in assay [1] is 11%. Besides, the EC50 in assay [2] was found to be 4.63 nM. Moreover, in assay [3], the 50% effective concentration (EC50 (read off the curve)) is ~2 nM.

B3: anti-CD94 antibody 1M4 (antibody, V domains shown)
VH: QLVESGGGLVQPGGSLRLACAASGFTFSNYAMNWVRQAPGKGLEWVSVISGSGDTTYCADSVKGRFTISRDNSKNTLHLQLNSLRAEDTAVYYCAKNCYGSGSYYNHFDYWGQGTLVTVSS
VL: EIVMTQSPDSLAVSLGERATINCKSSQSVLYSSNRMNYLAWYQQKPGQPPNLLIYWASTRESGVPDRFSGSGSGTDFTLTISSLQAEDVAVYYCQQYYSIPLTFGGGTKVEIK
In assay [4], B3 registered an HLA-E blocking of 0%.

B4: anti-CD94 antibody 1E4 (antibody, V domains shown)
VH: QVTLRESGPALVKPTQTLTLTCTFSGFSLSTSDLCVSWIRQPPGKALEWLALIDWNDDKYYSTSLQTRLTISKDTSKNQVVLTMTNMDPVDTATYYCARTIAAAGPYDAFDIWGQGTMVTVSS
VL: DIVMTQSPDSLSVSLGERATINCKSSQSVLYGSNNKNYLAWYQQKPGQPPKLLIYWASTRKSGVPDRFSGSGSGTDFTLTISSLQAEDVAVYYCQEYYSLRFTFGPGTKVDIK
notes: Hybridoma antibody from ATX-Gx Alloy transgenic mice; also called fucosylated 1E4
As to B4, the HLA-E blocking in assay [4] was found to be 0%.

B5: anti-CD94 antibody 18H3 (antibody, V domains shown)
VH: EVQLVQSGAEVKKPGESLKISCKGSGYRFTSYWIGWVRQMPGKGLEWMGIIYPGDSDTRYSPSFQGQVIISADKSITTAFLQWSSLKASDTAMYYCARPFDYGGSPGYFDYWGQGTLVTVSS
VL: DIQMTQSPSTLSASVGDRVTITCRASQSIRSWLAWYQQKPGKAPKLLIYKASSLESGVPSRFSGSGSGTEFTLTISSLQPDDFATYYCQQYNTFWTFGQGTKVEIK
notes: Human variable domains from ATX-Gx Alloy transgenic mice; Screened as hybridoma supernatant; also called human IgG1 18H3
Turning to B5, the EC50 in assay [5] came to 2.6 nM. For the same molecule, the “EC50 (read off the curve)” value in assay [6] was ~3 nM; in assay [7], ~0.8 nM. The molecule also registered an HLA-E blocking in assay [4] of 0%.
